Assay results as given in patent US20230287118A1 (published 2023).

Tests used:
human CD20 [1] = biological target: T1, human CD20 (human, UniProt P11836 1-297); experiment: cell-based or functional assay
T1 sequence (looked up): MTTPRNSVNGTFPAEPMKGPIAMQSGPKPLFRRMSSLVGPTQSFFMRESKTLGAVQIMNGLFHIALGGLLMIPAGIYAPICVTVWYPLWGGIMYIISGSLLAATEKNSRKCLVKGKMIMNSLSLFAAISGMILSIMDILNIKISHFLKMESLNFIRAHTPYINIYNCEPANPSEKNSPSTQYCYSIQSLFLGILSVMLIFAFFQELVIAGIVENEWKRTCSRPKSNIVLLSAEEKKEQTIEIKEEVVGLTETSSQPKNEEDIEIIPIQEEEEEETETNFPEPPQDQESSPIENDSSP

human CD20 [2] = biological target: T1, human CD20; experiment: flow cytometry, AlexaFluor488-labelled TCB on CD20-expressing B cells among human PBMCs
Protocol: (§1) The crossreactivity of the anti-CD3/anti-CD20 TCB antibody shown as molecule “B” above was evaluated by assessing binding to human and cynomolgus monkey CD20-expressing B cells and CD3-expressing CD4 and CD8 T cells. Briefly, heparinized human and cynomolgus monkey blood from healthy donors was used to isolate PBMCs by density centrifugation. Isolated PBMCs were counted, checked for viability and resuspended at 4×10⁶ cells/ml in FACS buffer (100 μl PBS 0.1% BSA). 100 μl of cell suspension (containing 0.4×10⁶ cells) were plated into 96-well_U-bottom plate and centrifuged (420×g, 4 min). After removal of the supernatants, PBMCs were incubated for 30 min at 4° C. with increasing concentrations of the CD20 TCB-AlexaFlour488 (200 pM-200 nM), washed twice with cold PBS 0.1% BSA, re-incubated for further 30 min at 4° C. with human/cynomolgus cross-reactive antibodies: anti-CD19 (in house, clone 8B8)-AlexaFluor647, anti-CD4 (BD, #552838, clone L200)-PerCPCy5.5 and anti-CD8 (BD, #555367, clone RPA-T8)-PE.

cynomolgus monkey CD20 = biological target: T2, cynomolgus monkey CD20 (cynomolgus monkey, UniProt M4ZHZ6 1-297); experiment: flow cytometry, AlexaFluor488-labelled TCB on CD20-expressing B cells among cynomolgus monkey PBMCs
T2 construct: whole, on cells; also called cynomolgus CD20
T2 sequence: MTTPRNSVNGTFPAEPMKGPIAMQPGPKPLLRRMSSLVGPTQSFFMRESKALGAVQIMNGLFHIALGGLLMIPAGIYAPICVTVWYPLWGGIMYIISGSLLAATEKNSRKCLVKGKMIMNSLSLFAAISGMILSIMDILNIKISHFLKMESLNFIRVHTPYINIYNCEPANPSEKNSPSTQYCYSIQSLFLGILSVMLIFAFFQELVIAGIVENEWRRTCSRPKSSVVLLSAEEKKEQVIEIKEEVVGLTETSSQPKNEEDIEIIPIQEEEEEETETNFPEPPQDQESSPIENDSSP
Protocol: as §1

human CD20 [3] = biological target: T1, human CD20; experiment: cell-based or functional assay; remark: listed apart in the source
human CD3 [4] = biological target: T3, human CD3 (human, UniProt P07766 23-207); experiment: flow cytometry on CD3-expressing Jurkat cells, PE anti-human Fc secondary antibody
T3 construct: In the assays it is the native CD3 complex on Jurkat or Jurkat-NFAT cells; also called CD3 epsilon
Protocol: (§2) The binding of the anti-CD3/anti-CD20 TCB antibody shown as molecule “B” above was tested on human CD20-expressing Diffuse Large-Cell B Cell Lymphoma (DLBCL) cell line (WSU DLCL2, 0.5-1×10⁶ CD20 binding sites) and CD3-expressing immortalized T lymphocyte line (Jurkat). Briefly, cells were harvested, counted, checked for viability and resuspended at 1.5×10⁶ cells/ml in FACS buffer (PBS 0.1% BSA).
(§3) Binding curves and the EC50 values related to binding were calculated using GraphPadPrism5.

human CD20 [5] = biological target: T1, human CD20; experiment: cell-based or functional assay; remark: listed apart in the source
human CD3 [6] = biological target: T3, human CD3; experiment: cell-based or functional assay
human CD20 [7] = biological target: T1, human CD20; experiment: cell-based or functional assay; remark: listed apart in the source
human CD20 [8] = biological target: T1, human CD20; experiment: flow cytometry on CD20-expressing WSU DLCL2 cells, PE anti-human Fc secondary antibody
Protocol: as §2, §3

B1: anti-CD20/anti-CD3 TCB molecule B: "2+1 IgG CrossFab, inverted" with charge modifications (VH/VL exchange in CD3 binder, charge modification in CD20 binders) (bispecific antibody)
heavy 1: not shown
heavy 2: QVQLVQSGAEVKKPGSSVKVSCKASGYAFSYSWINWVRQAPGQGLEWMGRIFPGDGDTDYNGKFKGRVTITADKSTSTAYMELSSLRSEDTAVYYCARNVFDGYWLVYWGQGTLVTVSSASTKGPSVFPLAPSSKSTSGGTAALGCLVEDYFPEPVTVSWNSGALTSGVHTFPAVLQSSGLYSLSSVVTVPSSSLGTQTYICNVNHKPSNTKVDEKVEPKSCDKTHTCPPCPAPEAAGGPSVFLFPPKPKDTLMISRTPEVTCVVVDVSHEDPEVKFNWYVDGVEVHNAKTKPREEQYNSTYRVVSVLTVLHQDWLNGKEYKCKVSNKALGAPIEKTISKAKGQPREPQVCTLPPSRDELTKNQVSLSCAVKGFYPSDIAVEWESNGQPENNYKTTPPVLDSDGSFFLVSKLTVDKSRWQQGNVFSCSVMHEALHNHYTQKSLSLSP
light 1: DIVMTQTPLSLPVTPGEPASISCRSSKSLLHSNGITYLYWYLQKPGQSPQLLIYQMSNLVSGVPDRFSGSGSGTDFTLKISRVEAEDVGVYYCAQNLELPYTFGGGTKVEIKRTVAAPSVFIFPPSDRKLKSGTASVVCLLNNFYPREAKVQWKVDNALQSGNSQESVTEQDSKDSTYSLSSTLTLSKADYEKHKVYACEVTHQGLSSPVTKSFNRGEC
light 2: EVQLLESGGGLVQPGGSLRLSCAASGFTFSTYAMNWVRQAPGKGLEWVSRIRSKYNNYATYYADSVKGRFTISRDDSKNTLYLQMNSLRAEDTAVYYCVRHGNFGNSYVSWFAYWGQGTLVTVSSASVAAPSVFIFPPSDEQLKSGTASVVCLLNNFYPREAKVQWKVDNALQSGNSQESVTEQDSKDSTYSLSSTLTLSKADYEKHKVYACEVTHQGLSSPVTKSFNRGEC
notes: Bivalent for CD20, monovalent for CD3; also called CD20 TCB; CD20 TCB_2+1_with charges, inverted
Q: How did the “EC50 24 h of B cell depletion in normal human whole blood” value (human CD20 [1]) turn out when B1 was run?
A: 13.2 pM

Q: And the EC50 (human CD20 [2])?
A: 4800 pM

Q: And the EC50 (cynomolgus monkey CD20)?
A: 3300 pM

Q: And the “EC50 24 h of tumor lysis, Ocly-18 cells” value (human CD20 [3])?
A: 0.3 pM

Q: And the “EC50 24 h of tumor lysis, SU-DHL-5 cells” value (human CD20 [3])?
A: 1.2 pM

Q: What about the “EC50 24 h of tumor lysis, SU-DHL-8 cells” value (human CD20 [3]) of the same binder?
A: 0.5 pM

Q: What about the “EC50 24 h of tumor lysis, U2932 cells” value (human CD20 [3]) of the same binder?
A: 0.9 pM

Q: What about the EC50 (human CD3 [4]) of the same binder?
A: ~12500 pM

Q: What about the “EC50 of tumor cell lysis (LDH release), Z138 cells + human PBMCs, 21-24 h, panel A” value (human CD20 [5]) of the same binder?
A: 2.18 pM

Q: What about the “EC50 of tumor cell lysis (LDH release), Z138 cells + human PBMCs, 21-24 h, panel B” value (human CD20 [5]) of the same binder?
A: 0.96 pM

Q: And the “EC50 of CD3 activation, Jurkat-NFAT reporter cells co-cultured with Z138 cells (luminescence, 6 h)” value (human CD3 [6])?
A: 29 pM

Q: And the “EC50 24 h of CD4 T cell activation, Z138 cells (average of 3 donors)” value (human CD20 [7])?
A: 1.2 pM

Q: What about the “EC50 24 h of CD8 T cell activation, Z138 cells (average of 3 donors)” value (human CD20 [7]) of the same binder?
A: 2.2 pM

Q: And the “EC50 24 h of tumor lysis, Z138 cells (average of 3 donors)” value (human CD20 [7])?
A: 1.6 pM

Q: And the EC50 (human CD20 [8])?
A: 980 pM
